# Measurements published in the supplement of paper PMC6757056.
# ± gives the standard deviation of the averaged measurements.
# B1: library; a variant is named by its letters at N, in order (parent)
# chain: GCUGUCACCGGUGUAUUACCCUAGUGGUCGACCGGUCUGAUGAGUCUNNNNNNAGACGAAACAGC
# Tests used:
# [1] = variants of: B1; experiment: FACS-Seq fitted mean relative fluorescence mCherry/BFP without ligand (log10 relative fluorescence); ligand: hypoxanthine (xanthine aptamer); higher = higher reporter protein expression; conditions: HEK293T, ligand present: no
# In short: (§1)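 Fluorescence is reported as a normalized fitted mean of sorted-bin read counts. Lentivirally transduced HEK293T libraries (mCherry ribozyme-switch reporter, EF1α-BFP marker) were enriched, treated with or without ligand for 48 h, and sorted into 6 mCherry/BFP bins for MiSeq sequencing of PCR-amplified genomic DNA. The normal fit was on log10(mCherry/BFP), scaled to five spiked-in control ribozymes.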
# [2] = variants of: B1; experiment: normalized RNA/DNA level with ligand (relative to sTRSVctl = 100) (log10 (% of sTRSVctl)); ligand: hypoxanthine (xanthine aptamer); higher = less ribozyme self-cleavage, higher mRNA level; conditions: ligand concentration (+) RNA-Seq: 5 mM, HEK293T, reporter: mCherry (pCS4076), ligand present: yes
# In short: (§2)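 HEK293T cells received ligand, where used, 1 h before being transfected with 4 µg per 6-well well of library plasmids encoding reporter-linked ribozyme switches. After 72 h, RNA was extracted with EDTA and sequenced. RNA level was derived from RNA reads per DNA read, normalized to a spiked-in non-cleaving sequence or the top sequences, then scaled and log-transformed. Values were ×100 then log10, the top set was 25 sequences, and the minimum was 100 DNA reads.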
# [3] = variants of: B1; experiment: normalized RNA/DNA level without ligand (relative to sTRSVctl = 100) (log10 (% of sTRSVctl)); ligand: hypoxanthine (xanthine aptamer); higher = less ribozyme self-cleavage, higher mRNA level; conditions: HEK293T, reporter: mCherry (pCS4076), ligand present: no
# In short: as §2
# [4] = variants of: B1; experiment: FACS-Seq fitted mean relative fluorescence mCherry/BFP with ligand (log10 relative fluorescence); ligand: hypoxanthine (xanthine aptamer); ligand concentration (+) FACS-Seq: 5 mM; higher = higher reporter protein expression; conditions: HEK293T, ligand present: yes
# In short: as §1
Variant,FACS-Seq fitted mean (log10) [1],normalized RNA/DNA level with ligand (log10) [2],normalized RNA/DNA level without ligand (log10) [3],FACS-Seq fitted mean (log10) [4]
AGGGCA,0.0731 ± 0.046,1.97 ± 0.02,1.815 ± 0.016,0.174 ± 0.034
GGGGCC,-0.395 ± 0.028,1.97 ± 0.036,1.89 ± 0.077,0.0142 ± 0.039
AGGGCG,0.511 ± 0.024,1.91 ± 0.028,1.57 ± 0.1,0.709 ± 0.089
CGGGCU,0.773 ± 0.061,1.946 ± 0.019,1.954 ± 0.0037,0.578 ± 0.023
GGGGCU,-0.598 ± 0.026,1.99 ± 0.074,2.008 ± 0.015,-0.677 ± 0.077
UGGGGA,0.00194 ± 0.046,1.88 ± 0.041,1.48 ± 0.029,0.376 ± 0.0086
CGGGGC,0.7 ± 0.032,1.95 ± 0.021,1.896 ± 0.017,0.628 ± 0.0078
GGGGGC,0.564 ± 0.051,1.85 ± 0.06,1.51 ± 0.023,0.468 ± 0.037
AGGGGC,0.795 ± 0.067,1.95 ± 0.047,1.86 ± 0.079,0.741 ± 0.049
AGGGGG,0.363 ± 0.12,1.88 ± 0.034,1.53 ± 0.07,0.631 ± 0.028
GGGGGU,0.334 ± 0.062,1.935 ± 0.0072,1.86 ± 0.02,0.316 ± 0.064
CGGGUA,0.436 ± 0.033,1.94 ± 0.044,1.82 ± 0.068,0.64 ± 0.015
GGGGUA,0.00434 ± 0.0088,1.94 ± 0.064,1.837 ± 0.0033,0.179 ± 0.094
UGGGUA,0.491 ± 0.13,1.95 ± 0.031,1.85 ± 0.061,0.699 ± 0.12
AGGGUA,0.412 ± 0.086,1.95 ± 0.041,1.82 ± 0.0091,0.427 ± 0.064
AGGGUC,0.588 ± 0.012,2.003 ± 0.0048,1.94 ± 0.06,0.51 ± 0.11
CGGGUU,-0.0176 ± 0.018,1.99 ± 0.027,1.89 ± 0.044,-0.176 ± 0.051
AGGGUU,0.328 ± 0.006,1.97 ± 0.027,1.9 ± 0.029,0.0205 ± 0.029
